Test results as given in the DeepSol protein solubility set.

test: soluble on expression in E. coli; label from the status in PepcDB or PDB records

**Q.** Which “soluble on expression in E. coli” value does the source give for “MSLSRPTKFRKVDFFPKSTCFIPLGKPKCEVEEIALKIEELEAIRLKDIKELNQEECAAKMEVSRQTFQNIIDSARKKIAIALTEGNAIAIGGGNFKSKFCKFKCLDCRNTYEINCENDKHMCPSCGSNNIVCNKKTGSCENLCKEGHHHHHH” here?
**A.** The value was “soluble”.

**Q.** Which “soluble on expression in E. coli” value does the source give for “MSLSTELDFEKPIRDLKGKIEELRTFTEEKEIDLSDEIEKLEKRLHALEENIYGNLKPWQRVQIARHGERPTTLDYIEQLFSDFLEMHGDRLYGDDEAIVAGIAKYKGQPVTVIGHQRGKDTKENIRRNFGMPHPEGYRKALRLMKQAEKFHRPVICFIDTKGAYPGKAAEERGQSEAIARNLLEMAGLKVPIVCIVIGEGGSGGALALGVGDRIHMLENSTYSVISPEGAAALLWKDASQAQRAAETMKITAPDLKELQIIDDIIPEVRGGAHRNVAEQAEAIDQVLEKSLKQLSSLTTEELLNKRYEKYKKIGEFSHVNDAISVNEGHHHHHH” here?
**A.** Its value is “soluble”.

**Q.** With “MSLSTLQDLEKTLWATADKMRANMDPAEYKHIVLGLIFLKYISDSFAGRRAELERKFSDAGDDYYLGGDDPTYLASELEERDYYKEVNVFWVPEPARWESLRAAAKQVDIGKRIDDALADIEAENPQLKNILDKRYARAQLPDGKLGELVDMISIIGFSSDANKARDLLGQVYEYFLGQFASAEGKRGGQFYTPASIVKTLVAVLNPHHGKVYDPCCGSGGMFVQSEKFIEAHGGKLGDVSIYGQESNPTTWRLAAMNLAIRGMDFNLGKEPADSFIRNQHSDLRADFVLANPPFNISDWWHGSLDGDSRWVYGTPPQGNANYAWLQHMLFHLKSSGRAGIVLANGSMSSSQNSEGDIRRAMVEADVVEVMVALPGQLFFNTQIPACLWFLAKQKNKRPGEVLFIDARKLGTNISRVQIELLDSDIESIAQTVANWRGVPLEVDGEIAEYADVAGFCRSVPLAEIAEHGHVLTPGRYVGAEAVEDDDEAFADKMQDLTALLGEQLAKGTELDQLIRHKLGGLGYEEGHHHHHH” as the sequence, how does the “soluble on expression in E. coli” value read?
**A.** The value was “soluble”.

**Q.** Which “soluble on expression in E. coli” value does the source give for “MSLSVSLVYRKARPDDWKGILELYNSLSDDDLYLRFFTFHKLTEEEARKIADTKEHYTVIAEINGKIVGEASIYFDGEFAVVVHPDYRRLGIGTELVKRLIEFAKKNGIKKVRFYTLPENYPMIKIGKKLGFKIIEREDEVYAYLDLTNENVILEKT” here?
**A.** The value was “soluble”.

**Q.** For “MSLSYLPLDEYQRKWIFTHQSMPVPEEDLAQIKPMSQARSAQFWKENISAQSPDMDRLSSQDWPMKESNWSETVDWMAAWESDEPNMPTEVETHIDWQDDVTVYFCYEKYNVIETKWSIFKKHWKNFLFYDDGPMLLGRRRAQALWFDSKGNVKLGERHEGHHHHHH”, which “soluble on expression in E. coli” value is on record?
**A.** Its value is “soluble”.

**Q.** With “MSLTAERQERLLARVEDAFGVISVYEVDDYRFLEFGDAIEQSCVFTADPSWLEYDYTRAMLVGALCHESPESALFLGLGAGTLTQACMKFLPLEDIEAIELRPDVPRLAMDYLGLDDDPRLYVRIGDALELLPTAEKADLLFVDLYTDHGPGVGHLAWNFLENCQQHLNPGGWLVINQWATDDGRPLGAALLRGLYHRHYWELPVKEGNVILLVPADLEQSLDLDGLRARAEALAPRLGYSLDGLIREIRPATEGHHHHHH” as the sequence, how does the “soluble on expression in E. coli” value read?
**A.** The value was “soluble”.

**Q.** For “MSLTAHRIGFLVWPGTKAMTLALAEEALRVAQRVHPEVVYELSFLQAELAEPAAVAGGWQLPGEPWTGRLEGLQKLFLLADEPPAAVAPALGSALKQLVRAGCSIGGLSAGVYPLAQLGLLDGYRAAVHWRWQDDFAERFPKVIATSHLFDWDRDRLTACGGMSVLDLLLAVLSRDHGAELAGAVSEELVVERIREGGERQRIPLQNRLGSSHPKLTQAVLLMEANIEEPLTTDEIAQHVCVSRRQLERIFKQYLNRVPSQYYLELRLNKARQMLMQTSKSIIQIGLSCGFSSGPHFSSAYRNFFGATPREDRNQRRSSSPFELSPVPAKGIITITTDPNSSSVDKLAAALEHHHHHH”, which “soluble on expression in E. coli” value is on record?
**A.** The value was “soluble”.

**Q.** Which “soluble on expression in E. coli” value does the source give for “MSLTAIKHVAISCRRALTKCAKIGHTTVSVSRSLRKLSPTAFKTLRQAIAKVGHLNIMGQKIRLNDRELAANKVIMAVKKEEISKGILDPSQFTPGQHIFKTLAEVQKSPIFNLIKGMPKGGALHAHDTALCSTDYLISLTYRKNLWICTAEEGCKAIAFRFSKEEPKEKPVKESIWEPMEEFRERRGEENVTKYLTRRFSMYPFSKFISNNQAWAHFMGIFILLDGLLCHAPIWAEYYYNALKEFAEDGVQYLELRSLLPPLYCIDGDMLTIRDTVAIYNSELERFRADHPDFIGSKLIYAPLRGVEPSVVEQYVKTAVELNKEFPNFMVGFDLVGQEELGRPLIDFVEPLLKMPEHINFYFHAGETNWFGSPIDENLVDAILLGTKRIGHGYALTKHPMMMRLAKLLGIAIEVCPVSNQVLQLGVDYRNHPAALLLAANVPIVISSDDPSFWHCAPLSHDFYFAFLGIAPMKADLRFLKSLAINSIRYSALVGEEKRVGYRKWQEKWDKWIDDVVEHKYCEGHHHHHH” here?
**A.** Its value is “not soluble”.

**Q.** For “MSLTANRDKFRPVYHHTPLYGWMNDANGLVYKDGEYHLYFQYNPYGSVWGNMHWGHSVSKDLVHWEHLDPAIARDTLGHIFSGSAIVDKHNSAGYGENTIVAFYTSHRNIPSGQSQVQSMAYSTDNGRTYTKYEQNPVLTPFDGLQNFRDPKVFWYEPEQKWIMIVSADKNMRFYSSANLKQWEYMSEFGEGFGPQPNQFECPDFIQLPVDGDRTRMKWVMIVNINPGFVYGGSGTMYFTGDFDGHQFVCDTKPEVVKWLDWGKDHYATVCFSNTGDRVIAVPWMSNWQYANYTPIQQFRSANALPRELSLYTGEDKQLYLSAAPVKETEHLRKDSKKLDDFTVNGEKRLETLFENNDGAFELELQLVSAGKEAGFELLNSLGEKVKIYLDASEGRVVMDRAESGIVDFGKKVKPHDLDTEESYARYKEVTVNYKNDFALGTWAPINTAKAHKIQVFVDNGSVELFVDGGRVAMTNLVFPNEPYNSLRFYSKGGEMKISNFTIYKLGLEGHHHHHH”, which “soluble on expression in E. coli” value is on record?
**A.** The value was “soluble”.

**Q.** Which “soluble on expression in E. coli” value does the source give for “MSLTDAKHGETIQGPMSYGHWIAGRETHSGGASFPSHNPTTGAEWGRFALGSQDTVGDAVAAATAAFEGAEWSSLSPTRRGRLMMRWGDAIAQHAEKLGALETSQNGKLLSEMVLQARIVPDWLYYYGGLADKIEGRVIPVERRSVLNYTRREALGVVGVIMPWNSPLFLTTMAVAPALAAGNTVVIKPSEVSSASIIEAVKLAEQIGFPRGVLNVVTGGRETAEALIDHCGVAKIAFTGGVEAGRAVGVRAARRMAQVTLELGGKSANIVFPDADLAQARAGLLAGIFAAAGQTCVAGSRAFVHRSIHDRLLAELAERAKNIRIGNPLDPATQMGPVATKAQLDKDESMVRRAIDEGAQVVHGGCRAAVDGFPGGYFYTPTILTGVSPGSYIAQNEVFGPVLSVIPFDDEDEVIALANGTGFGLAAGIWSLNIRQAHRVANQLQAGTVWVNMYRAMSFNSPFGGYKASGIGRQNGIEAIDSYLQTKSIWCELSQEEGHHHHHH” here?
**A.** Its value is “not soluble”.

**Q.** For “MSLTDIKMIALGGVREYGKNFYLVEINDSMFILDAGLKYPENEQLGVDLVIPNLDYVIENKGKVQGIFLSHGHADAIGALPYLLAEVSAPVFGSELTIELAKLFVKSNNSTKKFNNFHVVDSDTEIEFKDGLVSFFRTTHSIPESMGIVIGTDKGNIVYTGDFKFDQAAREGYQTDLLRLAEIGKEGVLALLSDSVNATSNDQIASESEVGEEMDSVISDADGRVIVAAVASNLVRIQQVFDSATAHGRRVVLTGTDAENIVRTALRLEKLMITDERLLIKPKDMSKFEDHELIILEAGRMGEPINSLQKMAAGRHRYVQIKEGDLVYIVTTPSTAKEAMVARVENLIYKAGGSVKLITQNLRVSGHANGRDLQLLMNLLKPQYLFPVQGEYRDLAAHAKLAEEVGIFPENIHILKRGDIMVLNDEGFLHEGGVPASDVMIDGNAIGDVGNIVLRDRKVLSEDGIFIVAITVSKKEKRIISKAKVNTRGFVYVKKSHDILRESAELVNTTVGNYLKKDTFDWGELKGNVRDDLSKFLFEQTKRRPAILPVVMEVREGHHHHHH”, which “soluble on expression in E. coli” value is on record?
**A.** The value was “soluble”.

**Q.** Which “soluble on expression in E. coli” value does the source give for “MSLTDKPQAEVIAVYPNKVKICVDDLGSFTEGHPLLRVGSYLRVTDHEDCILIAIIESFLIEVDDRKNRRHVIEALPLGVIKDDKFIRGGDALTIPPTGVAPATIQDIKKIFEDSVPTNRKFEFSSLVTDPDIRVPVDGNRFFNKHIAVVGSTGAGKSNTVTRIIQTSTTKTPSGTQNNSHAIIFDIHSEYKAAFPHANHIDINSLNLPYWLLNSDELEEVLLDTGERDNYNQSSVFRYLVTENKKKHNEGHHHHHH” here?
**A.** Its value is “not soluble”.

**Q.** With “MSLTEDVTSQTSESLARHSVLAEDLSQDGLTSLGAPGARVLLVWDAPNLDMGLGSILGRRPTALERPRFDALGRWLLARTAEIVAGRPGISTEPEATVFTNIAPGSAEVVRPWVDALRNVGFAVFAKPKVDEDSDVDRDMLAHIDERYREGLAALVVASADGQAFRQPLEAVARSGTPVQVLGFREHASWALASDTLEFVDLEDIAGVFREPLPRIGLDSLPEQGAWLQPFRPLSSLLTSRV” as the sequence, how does the “soluble on expression in E. coli” value read?
**A.** The value was “soluble”.
